System: peptide library, one residue held at a place counted from the S/T acceptor
Assay: relative phosphorylation of the sub-library (ratio to the mean residue at this position); higher = residue favoured
Conditions: human
Outline: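 Relative sub-library phosphorylation is a ratio to the mean residue at the same position. Purified recombinant kinases were incubated under kinase-specific conditions with biotinylated degenerate peptide sub-libraries, each fixing one residue at one position around a central Ser/Thr, using 50 μM peptide and 50 μM ATP spiked with γ-32P-ATP for 90 min. Spots captured on streptavidin membranes were phosphorimaged and quantified by densitometry.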

Sequence of MAPK15, construct: Full length (Q8TD08 whole entry, looked up): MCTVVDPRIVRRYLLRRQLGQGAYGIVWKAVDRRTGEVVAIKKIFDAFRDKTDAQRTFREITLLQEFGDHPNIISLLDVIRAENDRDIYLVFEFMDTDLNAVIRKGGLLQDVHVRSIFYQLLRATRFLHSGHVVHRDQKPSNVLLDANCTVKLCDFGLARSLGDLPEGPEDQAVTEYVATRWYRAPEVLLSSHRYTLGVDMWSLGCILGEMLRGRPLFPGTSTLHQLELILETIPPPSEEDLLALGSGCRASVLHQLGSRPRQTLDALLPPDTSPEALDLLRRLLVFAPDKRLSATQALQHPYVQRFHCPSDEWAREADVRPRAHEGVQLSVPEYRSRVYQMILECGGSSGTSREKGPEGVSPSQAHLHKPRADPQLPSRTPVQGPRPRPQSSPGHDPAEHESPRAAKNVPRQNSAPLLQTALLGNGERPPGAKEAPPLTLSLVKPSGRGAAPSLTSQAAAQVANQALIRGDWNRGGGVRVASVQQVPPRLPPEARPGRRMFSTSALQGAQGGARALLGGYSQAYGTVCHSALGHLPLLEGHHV
Sequence of MYLK3, construct: aa490-end (Q32MK0 490-819, looked up): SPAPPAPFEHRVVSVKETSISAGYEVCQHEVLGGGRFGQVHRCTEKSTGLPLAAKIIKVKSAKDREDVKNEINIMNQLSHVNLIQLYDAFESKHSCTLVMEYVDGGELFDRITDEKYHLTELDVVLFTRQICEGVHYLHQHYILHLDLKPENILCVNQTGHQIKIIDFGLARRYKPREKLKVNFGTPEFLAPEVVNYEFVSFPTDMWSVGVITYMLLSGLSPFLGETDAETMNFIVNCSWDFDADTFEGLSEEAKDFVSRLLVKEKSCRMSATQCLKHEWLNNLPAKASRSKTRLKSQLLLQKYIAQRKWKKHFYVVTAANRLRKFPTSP

MAPK15, construct: Full length (from UniProt Q8TD08)
relative phosphorylation
Conditions	at +1	at +2	at +3	at +4	at -1	at -2	at -3	at -4	at -5
A fixed	1.98	0.19	1.12	1.12	0.933	1.36	1.3	1.04	1.08
D fixed	0.214	0.135	0.665	0.726	0.643	0.632	0.992	0.893	0.987
E fixed	0.31	0.115	0.655	0.643	0.517	0.59	0.941	1.01	0.859
F fixed	1.22	0.19	0.874	0.928	1.08	0.688	0.88	0.875	1.06
G fixed	1.05	0.226	1.2	1.11	0.767	0.947	1.5	1.18	1.09
H fixed	1.41	0.573	0.984	0.976	1.06	0.738	1.04	1.09	1.07
I fixed	0.221	0.173	0.598	0.864	0.897	1.17	0.869	0.869	0.831
K fixed	0.432	0.992	1.61	1.41	1.11	0.651	0.9	0.997	1.26
L fixed	0.27	0.189	0.85	0.95	1.55	1.53	0.985	0.959	0.754
M fixed	0.369	0.17	0.799	0.964	1.28	1.31	0.972	0.951	0.815
N fixed	0.436	0.247	0.863	0.853	0.789	0.944	0.965	1.04	0.89
P fixed	4.86	0.192	1.05	1.11	0.93	2.07	1.1	1.06	1.19
Q fixed	0.578	0.498	0.897	1.02	0.888	1.01	1.02	1.03	1.04
R fixed	1.04	12.5	2.31	1.46	1.23	0.817	0.928	1.1	1.24
V fixed	0.421	0.184	0.792	0.841	0.933	1.13	0.864	0.941	0.914
W fixed	0.758	0.232	0.825	1.17	1.06	0.719	0.88	1.02	0.864
Y fixed	1.44	0.225	0.903	0.866	1.34	0.69	0.872	0.956	1.07
pThr fixed	0.325	0.205	0.653	0.578	0.415	0.772	0.936	0.887	0.904
pTyr fixed	0.601	0.177	0.592	0.512	0.486	0.681	0.862	0.905	1.01

MTOR, construct: aa1362-end (from UniProt P42345)
relative phosphorylation
Conditions	at +1	at +2	at +3	at +4	at -1	at -2	at -3	at -4	at -5
A fixed	0.644	0.815	1.08	0.948	0.839	1.52	0.751	0.924	0.888
D fixed	0.338	1.2	1.11	0.821	0.489	0.686	0.747	1.1	1.21
E fixed	0.342	0.889	1.07	0.829	0.709	0.643	0.983	1.09	1.04
F fixed	1.72	0.686	0.647	1.01	1.01	1.09	1.09	1.08	1
G fixed	0.613	0.903	1.43	1.21	2.83	1.58	1.01	0.942	1.07
H fixed	0.556	1.24	1.17	1.28	1.18	1.05	1.14	1.21	1.15
I fixed	0.707	0.686	0.601	0.706	0.433	0.88	0.778	0.747	0.593
K fixed	0.487	1.58	1.35	1.36	0.986	0.854	0.924	0.879	1.1
L fixed	1.43	1.16	0.756	0.695	0.698	0.682	0.938	0.956	0.724
M fixed	1.02	0.673	0.694	0.868	1.13	0.705	1.05	1.07	0.807
N fixed	0.452	1.12	1.33	0.968	1.36	0.954	0.986	0.939	0.923
P fixed	2.13	1.31	0.993	0.872	0.786	1.56	1.09	0.955	1.47
Q fixed	0.561	0.83	0.942	0.92	1.15	0.838	0.949	0.953	0.862
R fixed	0.506	1.7	1.2	1.2	1.15	0.973	1.1	1.02	1.04
V fixed	0.816	0.728	0.675	0.7	0.482	0.985	0.795	0.708	0.745
W fixed	1.99	0.643	0.99	1.41	0.721	1.05	1.2	1.3	1.36
Y fixed	2.68	0.836	0.972	1.2	1.05	0.956	1.47	1.13	1.01
pThr fixed	0.637	1.71	1.67	1.27	0.546	1.01	1.15	1.34	1.16
pTyr fixed	1.06	0.721	1	0.941	0.841	1.27	1.66	1.37	1.21

MYLK3, construct: aa490-end (from UniProt Q32MK0)
relative phosphorylation
Conditions	at +1	at +2	at +3	at +4	at -1	at -2	at -3	at -4	at -5
A fixed	0.997	0.992	0.828	1	0.944	0.927	0.967	1.04	0.985
D fixed	0.753	0.819	0.786	0.983	0.851	0.585	0.67	0.758	0.72
E fixed	0.833	0.958	0.758	1.01	0.799	0.585	0.667	0.836	0.722
F fixed	0.951	1.06	1.43	1.02	0.964	0.641	0.71	0.904	0.919
G fixed	0.937	0.89	0.861	1.04	0.913	0.788	0.879	1.01	0.982
H fixed	0.922	0.995	0.943	1.07	1.03	1.09	0.884	0.976	0.987
I fixed	1.1	1.19	0.997	1.03	0.971	0.656	0.748	0.936	1.09
K fixed	1.25	0.972	0.81	0.941	1.09	1.44	1.41	1.42	1.29
L fixed	0.938	1	1.2	1.04	1.24	0.653	0.711	0.918	0.983
M fixed	1.18	1.02	0.953	0.932	1.2	0.711	0.756	0.991	1.04
N fixed	0.961	0.863	0.839	0.93	1.07	0.737	0.717	0.867	0.813
P fixed	0.786	0.899	0.876	1.18	0.956	0.778	0.933	1.01	1.11
Q fixed	1.1	0.887	0.786	0.937	0.949	0.762	0.77	0.902	0.85
R fixed	1.43	1.07	0.821	1	1.17	4.7	3.93	1.62	1.68
V fixed	1.12	1.19	0.889	0.943	0.972	0.668	0.773	1.01	1.01
W fixed	0.839	0.997	2.22	1.05	0.862	0.63	0.735	0.858	0.813
Y fixed	0.908	1.19	1	0.902	1.02	0.647	0.729	0.938	1
pThr fixed	1.12	1.06	0.774	1.08	0.769	0.637	0.724	0.809	0.728
pTyr fixed	0.83	1.06	0.883	1.02	0.882	0.644	0.994	0.844	0.798

Reference: the supplement of paper PMC9876800
